From patent US12312397B2, “Anti-O2 antibodies and uses thereof” (priority 2016, dated 2025)
Numbering of substitutions follows the chain as printed.

B1: KPL26: Class II anti-O2 antigen human mAb; VH SEQ ID NO: 89, VL SEQ ID NO: 90 (antibody, V domains shown)
VH: EVQLVESGGGLVQSGGSLRLSCETSGFIFGSSWMTWVRQAPGKGLEWVATINPDGSATSYEDSVRGRFAVSRDNAKNSVYLQMNSLRAEDTAVYFCTRNKAYNALDYWGQGTLVTVSS
VL: QSALTQPPSASGSPGQSVTLSCTGTSSDVGGNNYVSWYQQHPGKAPKLIIYEVSKRPSGVPNRFSGSKSGNTASLTVSGLQAEDEADYYCSSFGGSKMFGGGTKLTVL
modifications: Description of Artificial Sequence: SyntheticKPL26 VH polypeptide; Description of Artificial Sequence: SyntheticKPL26 VL polypeptide
B2: KPS44: Class III anti-O2 antigen human mAb; VH SEQ ID NO: 116, VL SEQ ID NO: 117 (antibody, V domains shown)
VH: EVHLVESGGGLVKPGGSLRLSCAASGFTFKNAWMSWIRQAPGKGLEWVGRVKSEVDGGTIDYGVPVRGRFTISRDDSQGTLSLEMNSLKDDDTGVYYCRAFWSGFPTGYWGQGALVSVSS
VL: QSVLTQPPSLSAAPGQTITIACSGTSSNIGSDSVSWFQQFPGTAPRVLIYENNKRPSGISDRFSGSKSGTSVTLGITGLQTGDEADYYCATWDSSLSAYVFGSGTKVTVL
modifications: Description of Artificial Sequence: SyntheticKPS44/KPS44-G1 VH polypeptide; Description of Artificial Sequence: SyntheticKPS44 VL polypeptide
B3: KPS44v2017: sequence-optimized KPS44, Class III; VH SEQ ID NO: 202, VL SEQ ID NO: 203 (antibody, V domains shown)
VH: B2 VH with W102F
VL: B2 VL with D32N, S33Y, W92F
modifications: Description of Artificial Sequence: SyntheticKPS44-v2017/KPS44-G2/KPS44-G3 VH polypeptide; Description of Artificial Sequence: SyntheticKPS44-v2017/KPS44-G1 VL polypeptide

Tests used:
O1 LPS = assay: ELISA binding to O1 LPS; parameters: species or system Klebsiella pneumoniae; conditions: secondary screening
Method: (§1) The coated plates were incubated with cell culture supernatants from polyclonally stimulated lymphocytes (AMVBRA) or from monoclonal immortalized B cells (donor interrogations) containing fully human antibodies or with diluted plasma samples (PBMC donor selections) for 1 hour at room temperature. The plates were then washed with PBS containing 0.1% Tween-20 (PBS-T). Secondary antibody was added; either Alkaline Phosphatase-conjugated Goat Anti-Human IgG-AP (Southern Biotech, 2040-04, 1:1000 in PBS-B) or Peroxidase AffiniPure F(ab′)2 Fragment Goat Anti-Human IgG, Fc Fragment Specific (Jackson ImmunoResearch #309 036 098, 1:5000 in PBS-B) were used. Secondary antibodies were typically incubated for 1 h. Plates were washed three times with PBS-T, and P-NitroPhenyl Phosphate (pNPP, Sigma-Aldrich, cat #N2765-100TAB) or Sureblue (KPL, 53-00-03) substrates were added and incubated for 10 min or until the development of a colorimetric reaction. In the case of the HRP substrate Sureblue, the reaction was stopped by adding an equal volume of 0.2N HCl. The absorbance at 405 nm (pNPP) or 450 nm (Sureblue) was measured by a microplate reader (Biotek, Elx808).
(§2) The coated plates were incubated with serial dilutions of the monoclonal antibodies for 1 hour at room temperature. The plates were then washed with PBS containing 0.1% Tween-20 (PBS-T). Alkaline Phosphatase-conjugated Goat Anti-Human IgG (Southern Biotech, 2040-04, 1:1000 in PBS-B) was added. The secondary antibody reactions were incubated for 1 h. Plates were washed three times with PBS-T, and P-NitroPhenyl Phosphate (pNPP, Sigma-Aldrich, cat #N2765-100TAB) substrate was added and incubated for 30 min or until the development of a colorimetric reaction. The absorbance at 405 nm was measured by a microplate reader (Biotek, Elx808). The data was plotted with Graphpad Prism software. Representative mAbs from each class were tested for their binding to O1 LPS (FIG. 2A) and O2 LPS (FIG. 2B), and EC50 values were obtained (FIG. 2C). The majority of the anti-O2 LPS mAbs bound to both O1 and O2 LPS by ELISA. […] None of these LPS mAbs bound to the 03, 04, 05, 07, or 012 LPS serotypes (see e.g., FIG. 1A).

O2 LPS = assay: ELISA binding to O2 LPS; parameters: species or system Klebsiella pneumoniae; conditions: secondary screening, ELISA
Method: as §1, §2

[1] = test system: O1 LPS activation of NF-κB in RAW264.7-lux cells; assay: LPS neutralization assay (NF-κB luciferase, RAW264.7-lux), O1 LPS; format: cell-based, murine; parameters: key to LPS Neut O1: +++: Strongly positive activity; +: Positive activity; +/−: Somewhat positive depending upon the test conditions; conditions: for neutralizing activity against O1 LPS (NF-κB activation): human IgG1 format
Method: (§3) Activation of TLR4 receptors by bacterial LPS leads to downstream activation of the NF-κB transcriptional regulator. A decrease in induction of NF-κB-responsive luciferase activity was used to quantify LPS neutralization activity by LPS mAbs. A murine RAW264.7 macrophage cell line was engineered to carry a firefly luciferase reporter gene under the control of an NF-κB-responsive promoter (RAW264.7-lux). Serially diluted antibody stocks were mixed with LPS in a 1:1 ratio and incubated at 4° C. for 1 hr. Antibody/LPS mixtures were then diluted 1:10 into assay plates containing pre-seeded RAW264.7-lux cells (4e5 cells/well), which were then placed at 37° C. with 5% CO2 for 2.5 hours. Following incubations, Steady Glo solution (Promega) was added to each well and incubated for another 20 min protected from light. The relative light units (RLUs) were measured using a multi-mode microplate reader (Synergy 2, Biotek or envision multilabel plate reader, Perkin Elmer). The percentage of inhibition was determined by comparing RLU derived from assays with no antibodies to RLU derived from assays with anti-K. pneumoniae mAbs and assays performed with a negative control mAb. […] All mAbs were tested in human IgG1 format.

[2] = test system: O2 LPS activation of NF-κB in RAW264.7-lux cells; assay: LPS neutralization assay (NF-κB luciferase, RAW264.7-lux), O2 LPS; format: cell-based, murine; parameters: key to LPS Neut O2: +++: Strongly positive activity; +: Positive activity; +/−: Somewhat positive depending upon the test conditions; conditions: for LPS Neut O2: Table 7 summary; for neutralizing activity against O2 LPS (NF-κB activation): human IgG1 format
Method: as §3

[3] = test system: K. pneumoniae 43816ΔcpsBLux (O1); assay: Opsonophagocytic killing (OPK) assay, O1 capsule mutant; format: cell-based, Klebsiella pneumoniae; parameters: key to D Capsule OPK O1: +++: Strongly positive activity; +: Positive activity; +/−: Somewhat positive depending upon the test conditions
Method: (§4) OPK activity of anti-O2 LPS mAbs was tested against O1 and O2 strains. Briefly, log phase cultures of luminescent K. pneumoniae strains 8570ΔcpsBLux (O2) and 43816ΔcpsBLux (O1) were diluted to ˜2×10^6 cells/ml. K. pneumoniae cells, 5e5/well dimethylformamide (DMF) differentiated HL-60 cells, cleared baby rabbit serum (1:10 Cedarlane), and a series dilution of antibodies (2 ng-2.5 μg/mL) were mixed in 96-well plates and incubated at 37° C. for two hours with shaking (250 rpm). The relative light units (RLUs) were then measured using a multi-mode microplate reader (Synergy 2, Biotek or envision multilabel plate reader, Perkin Elmer). The percentage of killing was determined by comparing RLU derived from assays with no antibodies to RLU derived from assays with anti-K. pneumoniae mAbs and assays performed with a negative control mAb. Positive killing was determined where the percentage of killing is above 40%.

[4] = test system: K. pneumoniae 8570ΔcpsBLux (O2); assay: Opsonophagocytic killing (OPK) assay, O2 capsule mutant; format: cell-based, Klebsiella pneumoniae; parameters: key to D Capsule OPK O2: +++: Strongly positive activity; +: Positive activity; +/−: Somewhat positive depending upon the test conditions; conditions: for D Capsule OPK O2: capsule mutant strain 8570ΔcpsB lux (O2); for OPK activity against O2 capsule mutant: secondary screening
Method: as §4

KPC strain Kp961842_O2 = assay: Lethal pneumonia model, KPC strain Kp961842_O2; format: in vivo, Klebsiella pneumoniae; conditions: C57/BL6 mice, 2e8 CFU; mAb 2 mg/kg 1 hour post infection; survival
Method: (§5) C57/BL6 mice were obtained from Jackson Laboratories and maintained in a special pathogen-free facility. All animal experiments were conducted in accordance with Institutional Animal Care and Use Committee (IACUC) protocol and guidance. K. pneumoniae strains were grown on agar plates overnight and diluted in saline at proper concentration. The inoculum titer was determined by plating a serial dilution of bacteria onto agar plates prior to and post challenge. In acute pneumonia models, C57/BL6 mice were inoculated with 1e4 to 2e8 colony-forming units (CFU) of K. pneumoniae clinical isolates in 50 μl saline intranasally. Anti-K pneumoniae monoclonal antibodies (mAbs) and human IgG1 control antibodies were given 1-24 hour post bacterial challenge (therapeutic dosing). Mouse survival was monitored daily until up to day 8. Survival data of representative experiments were plotted in Graphpad Prism software.
(§6) Mice were challenged with 2e8 CFU of Klebsiella pneumoniae Carbanpenemase (KPC) strain Kp961842_O2 or with 3e8 CFU of KPC strain Kp977778_O2, followed by the administration of anti-O2 mAbs. When administered at a concentration of 2 mg/kg 1 hour post bacterial infection, Class III anti-O2 LPS mAbs KPN42, KPN179-IgG1, and KPS44v2017 protected mice from lethal bacterial challenge with the multi-drug resistant KPC strains Kp961842_O2 (FIG. 6, left panel, and FIG. 10) and Kp977778_O2 (FIG. 6B, right panel).

K. pneumoniae O1 = assay: Lethal O1 pneumonia model; format: in vivo, Klebsiella pneumoniae; parameters: key to Mouse protection models (O1): +++: Strongly positive activity; +: Positive activity; +/−: Somewhat positive depending upon the test conditions
Method: as §5
Mice were challenged with 2e8 CFU of Klebsiella pneumoniae Carbanpenemase (KPC) strain Kp961842_O2 or with 3e8 CFU of KPC strain Kp977778_O2, followed by the administration of anti-O2 mAbs. […]

K. pneumoniae O2 = assay: Mouse protection models (O2), Table 7 summary; format: in vivo, Klebsiella pneumoniae; parameters: key: +++: Strongly positive activity; +: Positive activity; +/−: Somewhat positive depending upon the test conditions; conditions: mouse pneumonia models
Method: As described in more detail in below, anti-O2 LPS mAbs were tested for: 1) binding to O1 and O2 LPS (see Example 5); 2) LPS neutralization (LPS-Neut) against O1 and O2 LPS (see Example 7); 3) OPK against capsule mutant strain 43816ΔcpsB lux (O1) and 8570ΔcpsB lux (O2) (see Example 8); and 4) protective activity in pneumonia models (see Example 9). O2 LPS mAbs were subsequently divided into three classes based on their in vitro activities. Class I mAbs were characterized as Binding (O1+O2+)/OPK (O1−O2+); Class 2 mAbs were characterized as Binding (O1+O2+)/OPK (O1+O2+); and Class III mAbs were characterized as Binding (O1±O2+)/OPK (O1−O2+).
as §5, §6

KPC strain Kp977778_O2 = assay: Lethal pneumonia model, KPC strain Kp977778_O2; format: in vivo, Klebsiella pneumoniae; conditions: C57/BL6 mice, 3e8 CFU; mAb 2 mg/kg 1 hour post infection; survival
Method: as §5, §6

Molecule | binding to LPS-O1 (O1 LPS) | binding to LPS-O2 (O2 LPS) | LPS Neut O1 ([1]; Table 7 summary) | neutralizing activity against O1 LPS (NF-κB activation) [1] | neutralization of LPS-O1 ([1]; secondary screening) | LPS Neut O2 [2] | neutralizing activity against O2 LPS (NF-κB activation) [2] | neutralization of LPS-O2 ([2]; secondary screening) | OPK activity against O1 strain ([3]; 43816ΔcpsBLux (O1), positive killing above 40%) | D Capsule OPK O1 ([3]; capsule mutant strain 43816ΔcpsB lux (O1)) | OPK activity against O1 capsule mutant ([3]; secondary screening) | OPK activity against O2 strain ([4]; 8570ΔcpsBLux (O2), positive killing above 40%) | D Capsule OPK O2 [4] | OPK activity against O2 capsule mutant [4] | protection from lethal bacterial challenge, Kp961842_O2 (KPC strain Kp961842_O2) | protection in lethal O1 pneumonia model (K. pneumoniae O1; mice, survival) | Mouse protection models (O1) (K. pneumoniae O1; mouse pneumonia model, O1) | Mouse protection models (O2) (K. pneumoniae O2) | protection from lethal bacterial challenge, Kp977778_O2 (KPC strain Kp977778_O2)
B1 | confirmed to bind | confirmed to bind | + | blocked | neutralize | + | blocked | neutralize | induced OPK activity | + | showed OPK activity | induced OPK activity | + | showed OPK activity | did not show protection | moderate protection | + | – | –
B2 | – | – | – | no activity | – | +/− | moderate neutralizing activity | – | – | – | – | – | +++ | strong OPK activity | – | – | – | +++ | –
B3 | – | – | – | – | – | +/− | – | – | – | – | – | – | +++ | – | protected | – | – | +++ | protected
